Consider 3 molecules from article PMC6878762 (Nature, 2012).

Sequences and labels used below:
B1: Dom34 (Pelota of Saccharomyces cerevisiae) (natural protein, S. cerevisiae, UniProt P33309 1-386, looked up)
chain: MKVISLKKDSFNKGGAVITLLPEDKEDLFTVYQIVDKDDELIFKKKFTSKLDEAGKKKSTDLVKLKIKVISEDFDMKDEYLKYKGVTVTDESGASNVDIPVGKYLSFTLDYVYPFTIIKQNFNKFMQKLLNEACNIEYKSDTAAVVLQEGIAHVCLVTSSSTILKQKIEYSMPKKKRTTDVLKFDEKTEKFYKAIYSAMKKDLNFDKLKTIILCSPGFYAKILMDKIFQYAEEEHNKKILDNKGMFFIAHCSTGYLQGINEVLKNPLYASKLQDTKYSKEIMVMDEFLLHLNKDDDKAWYGEKEVVKAAEYGAISYLLLTDKVLHSDNIAQREEYLKLMDSVESNGGKALVLSTLHSLGEELDQLTGIACILKYPLPDLDEDDGEE

For assay [1], the target named is Rli1 (ABCE1 of Saccharomyces cerevisiae) (S. cerevisiae, UniProt Q03195 1-608). Kind of assay: cryo-EM structure.
Rli1 (ABCE1 of Saccharomyces cerevisiae), sequence (Q03195 whole entry): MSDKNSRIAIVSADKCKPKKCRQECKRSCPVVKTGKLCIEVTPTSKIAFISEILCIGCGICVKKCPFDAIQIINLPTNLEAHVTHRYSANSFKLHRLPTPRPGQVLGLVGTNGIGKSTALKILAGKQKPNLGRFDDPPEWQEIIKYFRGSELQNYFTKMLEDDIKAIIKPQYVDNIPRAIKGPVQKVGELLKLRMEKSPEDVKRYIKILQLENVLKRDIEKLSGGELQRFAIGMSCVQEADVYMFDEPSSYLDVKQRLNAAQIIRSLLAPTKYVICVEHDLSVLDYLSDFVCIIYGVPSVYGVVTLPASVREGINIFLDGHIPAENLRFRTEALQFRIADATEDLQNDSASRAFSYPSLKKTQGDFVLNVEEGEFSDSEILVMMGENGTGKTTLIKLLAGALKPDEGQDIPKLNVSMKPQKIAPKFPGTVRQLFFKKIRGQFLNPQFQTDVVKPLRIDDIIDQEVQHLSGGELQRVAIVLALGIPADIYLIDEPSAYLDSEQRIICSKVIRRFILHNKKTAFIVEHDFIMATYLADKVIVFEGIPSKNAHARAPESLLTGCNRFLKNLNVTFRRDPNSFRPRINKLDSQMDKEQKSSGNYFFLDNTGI
Assay [2] deals with B1. Kind of assay: cryo-EM structure.

Regarding B1, the binding result in assay [1] is “binds”.

B2: ribosomal protein rpP0 (yeast 60S subunit) (natural protein, UniProt P05317 1-312, looked up)
chain: MGGIREKKAEYFAKLREYLEEYKSLFVVGVDNVSSQQMHEVRKELRGRAVVLMGKNTMVRRAIRGFLSDLPDFEKLLPFVKGNVGFVFTNEPLTEIKNVIVSNRVAAPARAGAVAPEDIWVRAVNTGMEPGKTSFFQALGVPTKIARGTIEIVSDVKVVDAGNKVGQSEASLLNLLNISPFTFGLTVVQVYDNGQVFPSSILDITDEELVSHFVSAVSTIASISLAIGYPTLPSVGHTLINNYKDLLAVAIAASYHYPEIEDLVDRIENPEKYAAAAPAATSAASGDAAPAEEAAAEEEEESDDDMGFGLFD
Turning to B2, the binding result in assay [1] is “binds”.

B3: ribosomal protein rpS30 (yeast 40S subunit) (natural protein, UniProt P0CX33 1-63, looked up)
chain: MAKVHGSLARAGKVKSQTPKVEKTEKPKKPKGRAYKRLLYTRRFVNVTLVNGKRRMNPGPSVQ
As for B3, in assay [2], the binding result is reported as “binds”.
